Target: T1, 人PRLR胞外结构域 (Sino Biological) (human, UniProt P16471 25-234)
T1 construct: Bought recombinant protein (Sino Biological); also called PRLR胞外区; PRLR ECD
T1 sequence (looked up): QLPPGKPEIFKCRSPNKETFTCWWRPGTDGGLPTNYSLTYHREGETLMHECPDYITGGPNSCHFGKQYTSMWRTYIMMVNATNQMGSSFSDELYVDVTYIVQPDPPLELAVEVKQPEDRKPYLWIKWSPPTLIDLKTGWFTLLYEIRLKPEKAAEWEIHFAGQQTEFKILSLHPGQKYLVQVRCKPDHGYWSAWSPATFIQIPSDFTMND
Experiment: SPR, Biacore T200, antigen amine-coupled to CM5 chip

- Kd: 2.31 nM
- koff: 0.000679 s⁻¹
- kon: 294000 M⁻¹ s⁻¹
B1: PRLR-DbsAb (CD3×PRLR双特异性抗体) (bispecific antibody, human IgG1, kappa)
heavy 1: not shown
light 1: DIQMTQSPSSLSASVGDRVTITCSASSSVSYMNWYQQTPGKAPKRWIYDTSKLASGVPSRFSGSGSGTDYTFTISSLQPEDIATYYCQQWSSNPFTFGQGTKLQITRTVAAPSVFIFPPSDEQLKSGTASVVCLLNNFYPREAKVQWKVDNALQSGNSQESVTEQDSKDSTYSLSSTLTLSKADYEKHKVYACEVTHQGLSSPVTKSFNRGEC
heavy 2: not shown
light 2: not shown
notes: also called PRLR-DsbAb; CD3和PRLR双特异性抗体

From CN109627340A (UNIV SHANGHAI JIAOTONG; JECHO LABORATORIES INC, dated 2019)
